Measured values as given in publication PMC3383883 (ACS Nano, 2012).

Target: bovine serum albumin (Bos taurus, UniProt P02769)
Experiment: carbon nanotube field-effect transistor

Chain of bovine serum albumin (P02769 25-607): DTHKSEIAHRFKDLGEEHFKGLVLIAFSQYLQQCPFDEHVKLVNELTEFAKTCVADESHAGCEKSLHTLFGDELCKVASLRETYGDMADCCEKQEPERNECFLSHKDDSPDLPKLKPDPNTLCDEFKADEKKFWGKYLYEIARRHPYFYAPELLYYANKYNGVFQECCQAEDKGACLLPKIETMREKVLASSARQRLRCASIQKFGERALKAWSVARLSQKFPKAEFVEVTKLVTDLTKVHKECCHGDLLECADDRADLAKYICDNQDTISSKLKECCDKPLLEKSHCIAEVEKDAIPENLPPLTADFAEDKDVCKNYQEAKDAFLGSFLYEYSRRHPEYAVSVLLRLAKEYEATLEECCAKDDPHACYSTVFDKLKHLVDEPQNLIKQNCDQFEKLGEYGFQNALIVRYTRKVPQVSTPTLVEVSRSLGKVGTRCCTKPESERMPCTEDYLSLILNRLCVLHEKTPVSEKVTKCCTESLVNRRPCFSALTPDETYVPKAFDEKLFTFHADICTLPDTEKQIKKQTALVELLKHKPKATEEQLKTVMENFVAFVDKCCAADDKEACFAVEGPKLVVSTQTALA

B1: anti-OPN 23C3 scFv (scFv, V domains shown)
VH: EVQLVESGGGLVQPKGSLKISCAASGFTFNIYAMNWVRQAPGKGLEWVARIRSQSNNYTTYYADSVKDRFTISRDDSQSMLYLQMNNLKTEDTAMYYCVRQMGDYWGQGTTLTVSS
VL: YIQMTQSPASLSVSVGETVTITCRASENIYSFLAWYQQKQGKSPQLLVYAATNLADGVPSRFSGSGSGTQFSLKINSLQSEDFGTYYCQHFWGTPFTFGSGTKLEIK
B1: no binding (tested: 450 ng/mL).
